From US20090280480A1

Key:
[1] = molecular target: Rnq1 preformed fibers (sonicated seed) (Saccharomyces cerevisiae) (UniProt P25367); experiment: cell-based or functional assay
[2] = molecular target: NM, the N-terminal and middle region of Saccharomyces cerevisiae Sup35 (soluble, unpolymerized) (Saccharomyces cerevisiae) (UniProt P05453); experiment: cell-based or functional assay
[3] = molecular target: biotinylated NM^K184C seed (fibers) (Saccharomyces cerevisiae) (UniProt P05453); experiment: capture of biotinylated seed (50% w/w) on Streptavidin-coated Dynabeads, SDS wash, scintillation counting
Sequence of biotinylated NM^K184C seed (fibers) (Saccharomyces cerevisiae) (P05453 1-253 K184C): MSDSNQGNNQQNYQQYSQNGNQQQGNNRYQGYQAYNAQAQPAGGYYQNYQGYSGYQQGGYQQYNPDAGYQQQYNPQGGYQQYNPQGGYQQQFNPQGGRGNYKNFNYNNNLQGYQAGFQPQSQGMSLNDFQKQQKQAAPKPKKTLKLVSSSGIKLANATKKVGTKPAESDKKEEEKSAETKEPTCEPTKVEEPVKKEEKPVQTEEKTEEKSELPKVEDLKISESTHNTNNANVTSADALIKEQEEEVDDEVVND

## Rnq1 (purified recombinant, soluble) (from UniProt P25367 1-405)
[1]
  lag time of Thioflavin T fluorescence with 2% preformed fibers: 4.3 h

## Hsp104 (yeast protein-remodeling factor, AAA+ family), His-tag removed (from UniProt P31539 1-908) (enzyme)
[2]
  inhibition of NM fibrillization, no nucleotide: 7.6 µM
  inhibition of NM fibrillization, with ADP: 3.1 µM
  inhibition of NM fibrillization, with AMP-PNP: 0.2 µM
  inhibition of NM fibrillization, with ATP hydrolysis: 0.1 µM

## soluble NM^T158C-iodo[1-14C]acetamide (from UniProt P05453 1-253)
[3]
  fraction of seed-bound NM soluble in SDS at early time points: 50%
